B1: DSM25 α1-α2-α3-Fv fusion (SEQ ID NO 43) (ligand)
chain: EPHSLRYNLTVLSWDGSVQSGFLTEVHLDGQPFLRCDRQKCRAKPQGQWAEDVLGNKTWDRETRDLTGWGKDLRMTLAHIKDQKEGLHSLQEIRVCEIHEDNSTRSSQHFYYDGELFLSQNLETLEWTMPQSSRAQTLAMNVRNFLKEDAMETDTHYHAMRADCLSELRRYLKSGVVLRRTVPPMVQVTRSEASGGSGDRVTITCRASQDVSTAVAWYQQKPGKAPKLLIYSASFLYSGVPSRFSGSGSGTDFTLTISSLQPEDFATYYCQQSYTTPPTFGQGTKVEIKGGSSRSSSSGGGGSGGGGEVQLVESGGGLVQPGGSLRLSCAASGFTFTSTGISWVRQAPGKGLEWVGRIYPTNGSTNYADSVKGRFTISADTSKNTAYLQMNSLRAEDTAVYYCARTYGIYDLYVDYTEYVMDYWGQGTLVTVSSGGSSRSSSSGGGGSGGGGDIQMTQSPSSLSASGGSGQITVTCRASGFYPWNITLSWRQDGVSLSHDTQQWGDVLPDGQGTYQTWVATRISQGEEQRFTCYMEHSGQHSTHPVPSGKGSHHHHHH
B2: biotinylated human NKG2D (Example 1) (receptor, UniProt P26718 78-216, looked up)
chain: FLNSLFNQEVQIPLTESYCGPCPKNWICYKNNCYQFFDESKNWYESQASCMSQNASLLKVYSKEDQDLLKLVKSYHWMGLVHIPTNGSWQWEDGSILSPNLLTIIEMQKGDCALYASSFKGYIENCSTPNTYICMQRTV
notes: also called recombinant biotinylated NKG2D

What was measured:
[1] = molecular target: T1, His-avitag natural NKG2D ectodomain, biotinylated (human); experiment: BLI (Octet), biotinylated natural NKG2D ectodomain coated, 100 nM fusion
T1 construct: also called natural form of the ectodomain of NKG2D
T1 chain: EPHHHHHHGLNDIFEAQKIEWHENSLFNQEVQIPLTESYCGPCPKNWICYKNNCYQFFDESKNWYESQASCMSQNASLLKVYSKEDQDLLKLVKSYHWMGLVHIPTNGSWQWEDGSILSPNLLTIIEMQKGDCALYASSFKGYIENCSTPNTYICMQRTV
Protocol: In order to characterize and compare the kinetic binding parameters of the natural and 8 variant α1-α2 domains to natural NKG2D, we measured their binding to surface coated biotinylated natural NKG2D ectodomain using biolayer interferometry (Octet) at 100 nM of each of the α1-α2-α3-Fv fusion proteins.

[2] = molecular target: T2, WT α1-α2 domain (soluble wild-type MICA, titrated) (UniProt Q29983 24-204); experiment: BLI (Octet), Kd = kOFF/kON
T2 construct: domain: α1-α2; also called WT MICA; WT NKG2DL
T2 sequence (looked up): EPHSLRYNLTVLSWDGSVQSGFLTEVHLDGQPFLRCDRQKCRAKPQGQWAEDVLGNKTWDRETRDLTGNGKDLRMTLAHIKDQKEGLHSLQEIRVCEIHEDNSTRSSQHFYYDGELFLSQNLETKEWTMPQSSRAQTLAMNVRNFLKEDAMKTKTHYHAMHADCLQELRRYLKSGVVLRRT

[3] = molecular target: T2, WT α1-α2 domain (soluble wild-type …); experiment: BLI (Octet), biotinylated human NKG2D coated, 100 nM analyte

Binder | binding result [1] | Kd [2] [nM] | koff [3] [s⁻¹] | kon [3] [M⁻¹ s⁻¹]
B1 | binds |  |  | 
B2 |  | 13.8 | 0.0018 | 130000

Source: patent publication US20200239541A1 (XYPHOS BIOSCIENCES, published 2020)
